These results are taken from the RNAGym collection of RNA variant scans (doi:10.1073/pnas.2313332121).

B1: TPR t1 (parent)
chain: GACCAAUCUGCCCUCAGAGCUCGAGAACAUCUUCGGAUGCAGAGGAGGCAGGCUUCGGUGGCGCGAUAGCGCCAACGUCCUCAACCUCCAAUGCAUCCCACCACAUGAUGAUGCCUGAAGAGCCUUGGUUUUUUG

This data set covers variants of B1. Briefly: polymerase ribozyme fitness, log enrichment relative to wild type (log ratio); higher = more active; in vitro selection for triplet polymerase activity. In outline:
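Input and output libraries were sequenced on Illumina after a single in vitro selection round, run in triplicate on PCR-built, transcribed mutant libraries of each subunit of a heterodimeric triplet polymerase ribozyme. Selection annealed libraries to a biotinylated primer, the partner subunit and triplets, incubated them frozen at −7 °C, then gel-excised extended constructs for streptavidin-bead capture and RT-PCR. Genotypes with ≥10 input reads and ≥1 read per output were kept. Fitness is the logarithm, taken in base 2, of genotype enrichment divided by wild-type enrichment, using inverse-variance-weighted replicate averages.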
In the case of G39U A41U C104U C123A, the “polymerase ribozyme fitness (log ratio)” value was -2.95.
For the variant G39U C73U, the “polymerase ribozyme fitness (log ratio)” value was -1.52.
Then U38G G61C U96G G122A, with -4.11; and G39C C114U, with -1.75.
The figure for G39U G71U is -1.16.
Then G39C A41U G60A, with -2.76.
On to U38G C88U, for which the “polymerase ribozyme fitness (log ratio)” value is -0.426.
The figure for U38G C49U C80G is -4.88; for G39A G71U A84U it is -0.797.
Then C40A C56U, with -0.58; and G39A G110A, with -1.31; and U38G G44A G63C U96C, with -2.8.
Then G39C G42U G47C, with -3.36; and G39U C70A, with -2.96; and G39A G69U U96A C104A G113A U126C, with -3.63.
Turning to G39A U55A G77C A84C, the “polymerase ribozyme fitness (log ratio)” value was -2.23.
The figure for C40A A90C G93U is -1.13; for U38C C53G U59A U106A it is -0.127.
Then G39A C64U C124A, with 1.06; and C40A C56U U87A, with -1.61; and G39C G127C, with -1.46.
Turning to G39C G63C, the “polymerase ribozyme fitness (log ratio)” value was -1.54.
Take C40A C70U C124U: the “polymerase ribozyme fitness (log ratio)” value is -0.171.
Then G39A A66U C123U, with -0.175; and G39U G93A C123A, with -1.36.
Regarding G39C G48U C73A A100U, the “polymerase ribozyme fitness (log ratio)” value was -2.09.
The figure for G39U C62A C86A is -5.05.
As for G39A G44A G77A, the “polymerase ribozyme fitness (log ratio)” value was -2.46.
Take G39A G48C A50U C94U C114G: the “polymerase ribozyme fitness (log ratio)” value was -4.57.
The figure for G39U U92C is -1.97.
The figure for G39A G69C C124U is -0.485.
The figure for G39C G110A is -1.82; for G39U C76A U125G it is -2.02.
With G39A C40G, the “polymerase ribozyme fitness (log ratio)” value is -1.68.
Then U38G C49A C73U C86U U109G U126A, with -5.53; and G39U U92C C115U A119U, with -3.57.
Then U38G C56U U81A U131C, with -2.23.
Then G39U A105C, with -3.64; and C40A C53U G63A, with -2.24.
As to G39A C56U C85U A111U, the “polymerase ribozyme fitness (log ratio)” value was -3.84.
With G39A G48A C73A A100C G120A, the “polymerase ribozyme fitness (log ratio)” value is -0.862.
Take G39A C79A C114G A121C: the “polymerase ribozyme fitness (log ratio)” value was -4.29.
U38G A91C: the “polymerase ribozyme fitness (log ratio)” value is -2.88.
Then C40A A50U A95C, with -3.28; and G39U G69U C73A C124U, with 0.671.
Then U38C G48U A68G G122A C123U, with -3.71; and G39C U54A G58U C114A, with -2.27.
Then G39U C85A A90G A119U C123G U125G, with -1.21; and G39U A41U A95C G117U, with -4.57; and G39U A46G C115G, with -3.39.
For U38G U78G, the “polymerase ribozyme fitness (log ratio)” value was -0.583.
Then G39U G77C, with -1.76; and G39U G127C, with -1.28.
Turning to G39A G51A, the “polymerase ribozyme fitness (log ratio)” value was -2.96.
Then G39U G45U C73G, with -2.79; and G39U A41U, with -2.97.
The figure for G39U G117U is -3.23; for G39A U54A A83U U92G it is -4.73; for G39U G117U A118C it is -4.29.
For the variant G39C C49G G77U C94A C98G C102U C123A U131A, the “polymerase ribozyme fitness (log ratio)” value was -5.44.
Then G39U G51A, with -3.64; and G39U C56G C72G U112C C124U, with -1.3; and U38G U92A U109G C114A G122U, with -6.12.
The figure for G39A C49A G122A C123G is 0.869; for G39A A83U it is -0.65; for G39U A111C C124A it is 0.34.
The figure for G39C G52A is -1.32; for U38G G69A U112A it is -4.05.
On to C40A A90G C123U, for which the “polymerase ribozyme fitness (log ratio)” value was 0.623.
Then U38G G52A C62U C114A, with -3.2; and G39U G60A U78C G127U, with -2.06; and G39A G52A C72U C85U A95C G113U, with -5.94.
C40A A43U: the “polymerase ribozyme fitness (log ratio)” value is -2.77.
Then G39A A84U, with -1.22; and G39U U78C U96A, with -4.33; and G39C C70U U112C, with 1.16.
The figure for U38G G47C C114A is -5.64; for C40A C70A it is -2.89.
The figure for G39U G47C G57U A84C is -3.89; for G39A C70G it is -3.16.
For the variant G39A G61C C72U G117A, the “polymerase ribozyme fitness (log ratio)” value was -1.82.
As for G39C G120U, the “polymerase ribozyme fitness (log ratio)” value was -1.35.
The figure for G39U C53A G63U U126A is -5.66.
